Reference: patent CN117264055A (SHANGHAI HRAIN BIOTECHNOLOGY CO LTD, dated 2023)

T1: 生物素化的CD318蛋白 (human, UniProt Q9H5V8 30-667, biotin on the avi-tag)
T1 construct: Used 1:200 to stain CAR-T cells; also called 生物素-标记的CD318抗原; biotinylated recombinant human CD318-avi-his
T1 sequence: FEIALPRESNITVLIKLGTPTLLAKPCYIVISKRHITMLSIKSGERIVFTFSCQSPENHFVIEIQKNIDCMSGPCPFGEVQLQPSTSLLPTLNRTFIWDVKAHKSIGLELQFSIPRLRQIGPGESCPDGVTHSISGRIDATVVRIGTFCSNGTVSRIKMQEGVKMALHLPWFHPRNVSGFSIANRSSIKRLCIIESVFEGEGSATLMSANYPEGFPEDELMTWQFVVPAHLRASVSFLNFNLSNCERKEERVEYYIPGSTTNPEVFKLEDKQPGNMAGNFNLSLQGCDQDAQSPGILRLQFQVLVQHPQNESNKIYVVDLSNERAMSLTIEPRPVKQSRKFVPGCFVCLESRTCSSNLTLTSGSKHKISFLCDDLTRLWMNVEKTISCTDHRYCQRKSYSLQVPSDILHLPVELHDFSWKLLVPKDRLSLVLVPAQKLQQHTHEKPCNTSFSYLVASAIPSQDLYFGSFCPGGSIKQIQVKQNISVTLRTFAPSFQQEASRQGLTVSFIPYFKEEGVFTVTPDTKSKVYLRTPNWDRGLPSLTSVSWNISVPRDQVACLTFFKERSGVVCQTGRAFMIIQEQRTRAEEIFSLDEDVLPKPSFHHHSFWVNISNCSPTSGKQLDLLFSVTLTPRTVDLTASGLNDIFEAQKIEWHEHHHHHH

T2: 重组人CD318-avi-his抗原蛋白 (human, UniProt Q9H5V8 30-667)
T2 construct: Coated on ELISA plates at 100 ng per well; also called 重组人CD318蛋白; CDCP1
T2 sequence: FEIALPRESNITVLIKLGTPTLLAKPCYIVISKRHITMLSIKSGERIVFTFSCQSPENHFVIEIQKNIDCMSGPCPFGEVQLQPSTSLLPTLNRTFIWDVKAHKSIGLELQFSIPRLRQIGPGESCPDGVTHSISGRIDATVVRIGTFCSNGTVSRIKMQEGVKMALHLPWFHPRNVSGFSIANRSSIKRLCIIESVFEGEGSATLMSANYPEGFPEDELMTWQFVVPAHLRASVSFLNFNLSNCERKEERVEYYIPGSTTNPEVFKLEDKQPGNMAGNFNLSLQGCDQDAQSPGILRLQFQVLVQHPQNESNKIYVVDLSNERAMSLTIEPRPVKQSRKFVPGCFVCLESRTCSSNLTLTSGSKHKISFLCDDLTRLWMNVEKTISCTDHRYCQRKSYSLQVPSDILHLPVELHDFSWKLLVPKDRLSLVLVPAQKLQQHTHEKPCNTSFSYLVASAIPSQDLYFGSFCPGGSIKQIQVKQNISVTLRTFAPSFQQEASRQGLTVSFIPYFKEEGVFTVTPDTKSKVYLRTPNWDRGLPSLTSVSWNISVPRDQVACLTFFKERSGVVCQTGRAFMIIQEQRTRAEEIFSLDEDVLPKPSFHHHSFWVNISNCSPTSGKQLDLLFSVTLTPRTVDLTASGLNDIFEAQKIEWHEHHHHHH

B1: 4A10-BBz (other)
chain: EVQVVESGGGLVQAGGSLRLSCVASGSNDSMTAMGWYRQAPGKQREMVAVSTSTGTAIYGDSMKGRFTIARDNAKNTVYLQMNSLNFEDTAVYYCRNFIRGRDYWGQGTQVTVSSTTTPAPRPPTPAPTIASQPLSLRPEACRPAAGGAVHTRGLDFACDIYIWAPLAGTCGVLLLSLVITLYCRFSVVKRGRKKLLYIFKQPFMRPVQTTQEEDGCSCRFPEEEEGGCELRVKFSRSADAPAYQQGQNQLYNELNLGRREEYDVLDKRRGRDPEMGGKPRRKNPQEGLYNELQKDKMAEAYSEIGMKGERRRGKGHDGLYQGLSTATKDTYDALHMQALPPR
notes: Chimeric antigen receptor: CD8 signal peptide, VHH, CD8a hinge, CD8a transmembrane, 4-1BB, CD3zeta; also called 4A10 CD318 CAR
B2: 4A8-BBz (other)
chain: EVQLVESGGGLVQPGGSLRLSCAASGFTSDYYAIGWFRQAPGKEREGVSCINNSDGSTYYADSVKGRFTISRDNAKNTVYLQMNSLKPEDTAVYYCAADDDVVAGFSCASYRYLELWGQGTLVTVSSTTTPAPRPPTPAPTIASQPLSLRPEACRPAAGGAVHTRGLDFACDIYIWAPLAGTCGVLLLSLVITLYCRFSVVKRGRKKLLYIFKQPFMRPVQTTQEEDGCSCRFPEEEEGGCELRVKFSRSADAPAYQQGQNQLYNELNLGRREEYDVLDKRRGRDPEMGGKPRRKNPQEGLYNELQKDKMAEAYSEIGMKGERRRGKGHDGLYQGLSTATKDTYDALHMQALPPR
notes: Chimeric antigen receptor: CD8 signal peptide, VHH, CD8a hinge, CD8a transmembrane, 4-1BB, CD3zeta; also called 4A8 CD318 CAR
B3: 4B7 (VHH)
VHH: EVQLVETGGGLVQPGGSLRLSCAASGFTLDYYAIGWFRQAPGKEREGVSCITSSDDNTYYADSVKGRFTISRDNAKNTVYLQMNSLKPEDTAVYYCATDALSIRRSSCQLGPTAYFGMDYWGKGTLVTVSS
notes: Tested as a periplasmic extract from TG1 (pcomb3X phagemid) and detected with anti-HA HRP; also called CD318 VHH 4B7
B4: 4A8 (VHH)
VHH: EVQLVESGGGLVQPGGSLRLSCAASGFTSDYYAIGWFRQAPGKEREGVSCINNSDGSTYYADSVKGRFTISRDNAKNTVYLQMNSLKPEDTAVYYCAADDDVVAGFSCASYRYLELWGQGTLVTVSS
notes: Tested as a periplasmic extract from TG1 (pcomb3X phagemid) and detected with anti-HA HRP; also called CD318 VHH 4A8
B5: 4G2 (VHH)
VHH: QVQLVESGGGLVQAGGSLRLSCAAFGNKYDFNTMGWYRQGPGKQRELVATIAAGGRTNYADSAKGRFTISRDNAKNTVYLQMNSLKPEDTAVYYCSAERVKNHYADYALDDYWGQGIQVTVSS
notes: Tested as a periplasmic extract from TG1 (pcomb3X phagemid) and detected with anti-HA HRP; also called CD318 VHH 4G2
B6: 4A4 (VHH)
VHH: QVQLVESGGGLVQAGGSLRLSCAASGSIFSGSAMGWYRQAPGKQRELVVVESSGGSTNYADSVKGRFTISRDNAKNTVYLQMNSLKPEDTAVYYCRGFYYGMGYWGKGTQVTVSS
notes: Tested as a periplasmic extract from TG1 (pcomb3X phagemid) and detected with anti-HA HRP; also called CD318 VHH 4A4
B7: 4A10 (VHH)
VHH: EVQVVESGGGLVQAGGSLRLSCVASGSNDSMTAMGWYRQAPGKQREMVAVSTSTGTAIYGDSMKGRFTIARDNAKNTVYLQMNSLNFEDTAVYYCRNFIRGRDYWGQGTQVTVSS
notes: Tested as a periplasmic extract from TG1 (pcomb3X phagemid) and detected with anti-HA HRP; also called CD318 VHH 4A10
B8: 4B2 (VHH)
VHH: EVQVVESGGGLVQAGGSLRLSCVASGSSDSMNAMGWYRQAPGKQRETVAVSTSVGTAIYGDSVKGRFTISRDNAKNTVYLQMNSLNFEDTAVYYCRIFSRGRDYWGQGTQVTVSS
notes: Tested as a periplasmic extract from TG1 (pcomb3X phagemid) and detected with anti-HA HRP; also called CD318 VHH 4B2

These binders were tested against T1, 生物素化的CD318蛋白 (assay: flow cytometry, CAR-T cells stained with biotinylated CD318 antigen and PE-streptavidin).

Q: Does B1 bind?
A: binds

Q: Does B2 bind?
A: binds

What follows are binders tested against T2, 重组人CD318-avi-his抗原蛋白 (assay: ELISA, coated recombinant human CD318, periplasmic extract, anti-HA HRP).

Q: Does B3 bind?
A: binds

Q: Does B4 bind?
A: binds

Q: Does B5 bind?
A: binds

Q: Does B6 bind?
A: binds

Q: Does B7 bind?
A: binds

Q: Does B8 bind?
A: binds
